Experimental data from the DeepSol protein solubility set.

Assay: soluble on expression in E. coli; label from the status in PepcDB or PDB records

Row | Sequence | soluble on expression in E. coli
1 | MAHHHHHHMAHVLQKCAHVLGISLSATGVYYAKGKMPYPATSSNEGTSSAESMGGSPGKAAKSNTVSAVKESQAATRKSKAQGNSVATAAVHTPSPPSSTEMNATNLDATSPCSSAAGPVGFFFDVGLHDLPNPPRDFDVTPSALAVDGTHSSANGAVIAVRDFVSHIPPFFVPVTEVVANMPGYTAEHLEVYLNVNSLELVTVAGERYVRLYGSFGDLSLSGSEVSEKRYAHYRPDVALVAAFEAAFEGIYDKWMPLPELLRRVGPDVTAQLPYQGPAAITYFAQMQHRFAFAVREVPTTGGGAAGALSSPQFTTEAAVLLRKPGYSGLEAHSTPTPKSFQALMSLVPGDTQVDIDVVRCQLTSEVRAELSRYYDGLEGFFAAHKPVFFVPPETPTVVMRMRYRLRTQRAKLPLEEQLRIATDARDKARIRSLRRKIAFRDDPSHPLHDPENLAKEVSKHLPRRGFVHLRIFLKRNVPEELLMYMPKRMRCFFNNYPQYFTQFEYQSAGTWCLCRPDQPLPRGVIRQNFSDGDLLRLIAEFLQQRGARAASMVHTNLPFGAQEVIRRRYGGVYFFVTRYPQYFNVVLKTDRQNVKSSAVVHLIQVPSQELSDATMAASAASLNNPNAPSHDDDDHESGDDDDDEDLDDGLD | not soluble
2 | MAHHHHHHMALRRLVKMSTTAEECAAVSELFRQYRHPNLVPLTNVLVTDEFVMGSADVIMEYKFITGAKSLNEAFINEGKATEGLLWSFACQMVSLMRAFHETSTPLRGLHWTKILFVPVSSRFYFSGVGFMDVMEPKGSAHQSAALMKHDIQSLGLLLLQLSTGNSNAKPEDFTAQPAKGYSGIFWLLVKACIDGTADVVTLCRALGERMSMEVAHQEGHADRLISQCGKEAHNGRIMRLMIKLNFVLESLHDFPEHSAEANNRYALRLFSQYVFNQVDERHRTRLDWGHVFHSLNKLDCGSEELVQLIGNDESNTILVISYRDLRDTLERAFEQLQPPPNEGDVQPFTVTVGTTSATL | not soluble
3 | MAHHHHHHMALVQSHYGSDAIHTRLNDDPPSSEEIERRRGAGCLPYSNRLVHRLVVLPVTPPSIYEGETTQSPVETQGTHNERRANERDRQRRARYASLLRSHYVPLVPFSTFTEPQERSFKLPTISKYPAARRQPQFAQSEEDYMMCGGFYPGPDQYDHRGGPRLGVMQQHTVQLERVHSRHVAPPPSRLINAPGNEDMLFPI | not soluble
4 | MAHHHHHHMAMKDAVWLGKPVDVTGEDLCSVYTSRIGGTATLFRETADYSVFRCPKCNSMNTVSLLAQIYAPLDVYDRLLYVLTCSTCSTEQSTFCFALRSQNFNPSYKNVSQTNDKGGCEDKRLLFEESADWGDGMDKGWDYDYKSVKSNTATEQRGNRSTVNEAIADDICSTEVPSSLAPPGSQPPIRGMRFPCFTLEVFEEPPKVKPKSAPFNIQLHEAQGKYGEDVVETTVLDEADEPLHEKLLRKYVERIGRVPSQCVRWGPSREPLQLSVISIVAPRCPYCGKKRRYELQLTSPIIYFLTKSNEKKHPLHFGNVLVFTCSGNCNTEAYALEYCFVEGEI | not soluble
5 | MAHHHHHHMANRTDASAIKNFGSNPQYLISNIIRSKIYDSPYWKEKCFALTSESIIDQAINLKYVGGTYGGNRKPTRFLCLILKLLQIQPDKDIIYEYIKNEDFVYLRALGIFYLRLIGKSLEVYNHLEPILFDYRKIRMRLQNGTFEKIYMDVFVDNCLILNNFLDVDFPTLTKRQVLEENNLLQRKNLEYYKALLNISSDNELFKNNEDTTHNKNKEINKNKNEYKQRDMLERHKKINKYSSEDDHNYYHKKEGNYDKNKKHNKIYNHKYNNKYDDEERRHHSDYSSDMDRKSRKKEKKRTHSKYDHKKKKEKRNYSSDSKHSFTSSEYSVQNKKEEHDKKKKKLFFLKKQKKKNYHSSSQSNHSYDENKKDELSIDKWNEIRKELGMKPLK | soluble
6 | MAHHHHHHMAPLKTQAPSNRSLLGYPLRRAAAMEMLYGGICIQHLAQPPFPLRTIQSESLPPPSLQGERDDLELEVKDSTGNVMGYRLFPVNIGIRARTESVRVRSEDCYKRFLAQKHCAAAGVPLQFPAPSSITNSNCLATPRAASHFHPPSSSLSLFTRPADSQGGDVGRTTPADVAAYHPRAWRPYQMLKPMPHNWGPAVRSSGVRGPHMQLLQERIDKKGFGWKRKSRSLWQQDISTAGFRPKRYF | not soluble
7 | MAHHHHHHMATLQVRDFDPRTATHYYHCILAGIPHPVTLQSISSAIVPDSECESVQNLEKIGCQIVPYRLHVFKETLSLKFGVVDFFIHHSTSGESANPAEVHELFLQWFGSSLTRGVMSLNSWISLGQPRELHSATPFVSALMEKCSFFDAKVVSDIEKLRTFILSKVRFDNRGLNAHANNRSRVAASEDSSLQEEQTRTDCGNDPSVEWKSVGTLSASSLDSQELAWLSRQHRQFPSIAPANEREASATWELEPVRTFLQKALTPLVEVVK | not soluble
8 | MAHHHHHHMATPKQKETICEAAIVGFSFNKDRTEAVFSPNNHLLYIVSCKDIKDCSTWEIYATLEHHDQSVSATAWHGSTNRILSCSQDRTAFVWQRNAKGKWKPQMVMLDAGVKRGLTSCAWNHSGSKIYVGSAASNIAVGRFDAENEWWICRLLEGHTSTVTALAPHPSDDTLLLSGGTDGRLMLISTFMKKLDGKKSSSFGHVYLEKCFGAWVHAIAWAPSGQRFAVATHDSRVHVFDIPSVDNLSESIDEGLAIYSVSLAILPLKSLAFVLEDHLVGGGFDYFPALFQPSKKGTGWTMSGKWTMTRVKGAKTAQQIAREKFQNEARIGQAELLEEEQTRHKNTINGVLTLIDDGAAFKSAMEGPVFATASLDGRVEVWTIRDMIPII | not soluble
9 | MAHHHHHHMATSLSDVNHIILVLSGKGGVGKSTVACQLALALANVHGKKVGLLDVDICGPSVPTICGVTGKDVYRGDAGWEPVSLFHEQHEADTAASATGNVKIMSIAFLLPSENDAVVWRGPKKDAMIRQFVTDVHWGALDYLIIDTPPGTSDEHLTLCEVLKPFNTAGAVIVTTPQDVATDDVKKELSLCHKLELRCLGVVENMSGFVCPHCAHCTDIFSKGGGKKLAEMYEVEFLGAIPIDPTLSLAEDKGQCFVTTATDANSPTVRKTVAAVTGVIDAILKQVEKSAQLQQRH | soluble
10 | MAHHHHHHMATSSHRTAMSSLSAAMKQYVQQAAEDDVVCAFGPDYFHGARTGACVGSLFSATLCWYTFRLLKEDQREVDFLAGLKHGQRNPHFSTWTLLRGLRTQPMLTTGCIALATTSAMKCIKCYLANQRCREFFTDDVQFHMISELSETDLDAAAFLSTVLHNANGCGVGARNALSTLREDRSEDQPSMSPAPTASASTSTVNGLLHTHSSRLDSKEFTLTHRAPTYYDGVAVAFLGSVLDCYLPQKPVQKYYNMRVGTW | not soluble
11 | MAHHHHHHMAVSINSQLKYVVNQAASVEADMNCVERVQHYTSNIEHEDLMEEIDEAIRALEKNDKKRRERKGDPITPAGITHDDDDTSTATVSVPLLEESHASDASPELSYSPADNNNHNDDNGRRENVAAGSLEFRDVTMRYRAGLPHVLCGLTFTIPAGQKVGVIGRTGSGKSSLLLTLLRVVDIEDGQIVLSGRPIRSYSLRALRQLFSMIPQDPLLFNGKVRENLDPLNVCSDAQVREAIRLVGMEDRLAAETDPLQCPVEEGGANFSVGQRQLLCMARTLLRRGCSFILMDEATANVDPTLDKQIQHVVTHVFAGHTVITIAHRLHTLATYDVILMMEEGRVVEMGSPYDLVRSADTRFAQMVRSLGESAMQEFMASTQAPTR | not soluble
12 | MAHHHHHHMCAYASILVVSAVHLCFCYRSHTSQSMTPAKALRLSSLPLATAWWRQHGLADRLEGFRACRQPTPRQRPLQRTADGGVSLGWAGLLAGAEQSRTSSITTATDRPPDLPLVLVSACLLSYPVTYRGTHTNLPASLRPTPLLFLTEVLFKELGLVQCVPVCPEVQWLGLPVPRVPLRLVRGSRGTDDARQRGSGWAAAQHSSSATLPSLSMSASDSVAIKGEREARYLVESSAEDHVLLRCDAPNDTFAEQSPSPQLHSAFLAQLVQDLKAVDGIILKSYSPSCGVRDARLYEEAVTSPPSSPCDQHACNACERAGKPTSASFIGRRPAASASAQRRFDLVDGFFTQQLRDFLTSMHGVGGERRADARCHSEAAAPVITCDRLLTDFYTEERLRRSPLAGKVKKRHVAGNASEAAPHLTSLDSFMESVLQHRDWRVSQHRC | not soluble
13 | MAHHHHHHMDARVHRSKRGCGRVLKRSRASSPEVVAEVGTGRPGDPFVLPLRSSPNGSGCHHCPEHSCDCLYVSKELERCYLSLQVSRQVTCKGRRELCAKSVLPPFVARLLRVANVTADDTFYDLGCGNGSVLFHVALATGASCVGVEINEHNAKVAKEAWTHLRPVFEKRRGRKLDVSIVCGDFCKVLKQDNYFSSSCVVWIANLLMPRFVNHYLSERLRSLPIGSRVLCMEDLYPHSRSVAAARDPDAFEKFEMVDYRWQEDSVEWSPASGPFYLYIKRS | not soluble
14 | MAHHHHHHMDEKSEINYDEGADPSYSMHMSESHSAYEEVNKTSSDSEFVDDDYSKVISENNLESDNVKYNPDLYNLGKARQYLCPKVQEYGIPGQVSPYHFPYNEEDYLSNVDTEYDENGFPIRTNIDDNDNNEDNKKLWSWTNDGKLKLLCSQPIIPVSVVQGILRRDKIILIPQVEVTDVVIPKVYNQNIKHDVPTLNIEIMKSNVNIPNVKYVDKEIIIPIITGYTHKFVPKWDIHEVPRPVVKYIGEQKIVEVEVPEIKYIDKFVEREVIVDTVEKRVPKIIEVPKYVDEVKYVWKPIEKIVYVQKLIPKFDVNLECPPPLIVPYPVQRIKQISPVMVKKNNTEIPDYNYYDLNSPEGSLPIPEEYIHHYSRKQKMNKGLLSTCCDKKIVTEEEKNVQFVSVPLSNEHESVCVDEEIKKNINMSQENINTQLNNNMDNFIYDSDIKKNKDKMNSSINGKQQLYINS | not soluble
15 | MAHHHHHHMDGGGRVAGTGVQLKPATVHGSVECVEFDKLSGSSNLFALQTMPVYFGASRVPWRLLDVGVKERKPASESGSAGAAMWLALVRFPPRGACPMPAAMGGWGVR | not soluble
16 | MAHHHHHHMDKISPEILAARAKLKEKMGGNLRQIGGKGSARRKIKKVHKNSMSNEKKINLILKKIGASYFGDVDEICVYKAGDTYMEFKRPKLSASLQSNTYVVTGKFTEQKIDINKIFEGLKGNKNVDMNLLEKIKNDPNIKNLLNKENNGNAKKEEGAQEAADVPDLVENFEEVSKEEQK | soluble
17 | MAHHHHHHMDSEETINLAVKYAKEAVVEDEKKNYKEALNLYIQSLQYFNFFCKYEKNSNIRDLILKKMEVYMTRAENLKEMLNKKDSIENKEKITNTEETKENMKKQIKQFILNKNNNIKWSDVCGLETAKEVLKEAIIFPLKFPKLFNSSTLPYKGILLYGPPGTGKTFLALACSNECNMNFFNVSSSDLVSKYQGESEKYIKCLFETAKEHSPAIIFIDEIDSLCGSRTDGENESTRRIKTEFLINMSGLTNYKNNIIVMGATNTPWSLDSGFRRRFEKRIYIPLPNIYARAKIFEKYINQNENNNISKEDIKQFATLTENYTGADIDILCRDAVYMPVKKCLLSKFFKQVKKNNKICYTPCSPGDSDPTKVEKNVMSLSENELSLPPLTVQDFKTAISNAKPSLSVDDIKKYEEWTHQYGMNGT | not soluble
18 | MAHHHHHHMDVSQFLKSFKKNVAAKSKRSSSVRQSDEAANSGAEEDVTEIFHSASDSEADGEAEDGEVILGGRADKMAGKRYTRNMDHSKRNREFAALKVVETNSVPAVEAGRFQRQRAALARQATDARKPPRTEMIASVRAELLRQREKLRGSNALDSANQLDASVQKMETTMIEVEDLLQASAPTAATSASVLDFLPAAPLPAPRQATLTTASRAASIAVALSEPQPPSSSVTNGRAGTPTVNDPALEEPPKLPKKRTKFELAMAMAHDEVAS | not soluble
